Laboratory results from patent US20240182551A1 (published 2024).

T1: HCoV-HKU1 recombinant soluble S ectodomain protein (prefusion-stabilized trimer) (HCoV-HKU1)
T1 chain: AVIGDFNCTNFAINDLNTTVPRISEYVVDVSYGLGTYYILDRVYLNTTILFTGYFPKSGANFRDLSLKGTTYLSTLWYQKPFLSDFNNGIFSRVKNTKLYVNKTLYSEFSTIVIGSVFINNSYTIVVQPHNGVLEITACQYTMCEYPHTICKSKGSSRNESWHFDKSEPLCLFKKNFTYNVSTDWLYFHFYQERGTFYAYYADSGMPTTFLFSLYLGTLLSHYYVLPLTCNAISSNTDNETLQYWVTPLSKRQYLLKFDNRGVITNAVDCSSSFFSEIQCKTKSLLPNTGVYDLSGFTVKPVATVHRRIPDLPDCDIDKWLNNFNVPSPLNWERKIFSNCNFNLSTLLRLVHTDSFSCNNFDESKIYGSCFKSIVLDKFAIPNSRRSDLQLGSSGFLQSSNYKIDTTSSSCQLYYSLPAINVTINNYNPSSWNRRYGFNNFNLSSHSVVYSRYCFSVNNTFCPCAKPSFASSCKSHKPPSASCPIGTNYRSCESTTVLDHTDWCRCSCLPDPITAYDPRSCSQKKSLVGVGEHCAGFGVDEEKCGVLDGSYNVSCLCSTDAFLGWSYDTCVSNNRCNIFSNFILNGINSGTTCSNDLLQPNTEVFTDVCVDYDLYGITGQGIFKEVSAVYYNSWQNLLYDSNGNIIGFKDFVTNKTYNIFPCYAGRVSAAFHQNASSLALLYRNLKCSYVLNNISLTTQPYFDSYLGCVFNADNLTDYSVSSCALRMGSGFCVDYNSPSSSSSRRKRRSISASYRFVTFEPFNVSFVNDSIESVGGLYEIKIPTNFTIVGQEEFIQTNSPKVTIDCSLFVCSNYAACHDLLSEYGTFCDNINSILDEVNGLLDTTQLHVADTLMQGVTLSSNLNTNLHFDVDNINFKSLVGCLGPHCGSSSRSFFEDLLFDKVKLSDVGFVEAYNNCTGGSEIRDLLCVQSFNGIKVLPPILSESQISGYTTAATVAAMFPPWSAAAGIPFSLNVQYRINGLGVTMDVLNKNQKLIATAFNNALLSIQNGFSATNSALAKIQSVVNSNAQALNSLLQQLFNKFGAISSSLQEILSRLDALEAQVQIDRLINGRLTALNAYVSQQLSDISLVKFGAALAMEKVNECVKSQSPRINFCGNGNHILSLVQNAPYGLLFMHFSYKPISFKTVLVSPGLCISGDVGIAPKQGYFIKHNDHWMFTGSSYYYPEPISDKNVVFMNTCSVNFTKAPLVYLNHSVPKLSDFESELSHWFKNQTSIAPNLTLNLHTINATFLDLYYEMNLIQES

B1: CC9.2 IgG (antibody, V domains shown)
VH: EVQLVESGGGLVQPGRSLRLSCVAPGFTLGGYGMHWVRQAPGKGLEWVGLISYDGSVQKYGSSVKGRFTISKDNSKNTLYLEMNSLRADDTAVYFCVKGASLGDNWGQGTLVTVSS
VL: EIVMTQSPLSLPVTLGQPASISCRSSQSLVYSDGDTYMSWFHQRPGQSPRRLIYKVSNRDFGVPDRFSGSGSGTDFTLKISRVEAEDVGVYYCMQGTHWPYTFGPGTKVEIK
B2: CC9.2 Fab (Fab, V domains shown)
VH: EVQLVESGGGLVQPGRSLRLSCVAPGFTLGGYGMHWVRQAPGKGLEWVGLISYDGSVQKYGSSVKGRFTISKDNSKNTLYLEMNSLRADDTAVYFCVKGASLGDNWGQGTLVTVSS
VL: EIVMTQSPLSLPVTLGQPASISCRSSQSLVYSDGDTYMSWFHQRPGQSPRRLIYKVSNRDFGVPDRFSGSGSGTDFTLKISRVEAEDVGVYYCMQGTHWPYTFGPGTKVEIK
B3: CC40.8 IgG (antibody, V domains shown)
VH: EVQLLESGGGLVQPGGSLRLSCAASGFTFSSYVMTWARQAPGKGLEWVSAISGTGYTYYADSVKGRFTVSRDNSKNTLFLQMSSLRAEDTAVYYCAITMAPVVWGQGTTVTVSS
VL: SYELTQPPSVSVSPGQTARITCSGDALPKRYAYWYQQKSGQAPILVIYEDKKRPSGIPERLSGSKSGTVATLTISGAQVEDEADYYCYSTDSSGNHAVFGGGTQLTVL
B4: CC40.8 Fab (Fab, V domains shown)
VH: EVQLLESGGGLVQPGGSLRLSCAASGFTFSSYVMTWARQAPGKGLEWVSAISGTGYTYYADSVKGRFTVSRDNSKNTLFLQMSSLRAEDTAVYYCAITMAPVVWGQGTTVTVSS
VL: SYELTQPPSVSVSPGQTARITCSGDALPKRYAYWYQQKSGQAPILVIYEDKKRPSGIPERLSGSKSGTVATLTISGAQVEDEADYYCYSTDSSGNHAVFGGGTQLTVL
B5: CC9.3 Fab (Fab, V domains shown)
VH: QVQLQESGPGLVKPSETLSLTCTVSGGSIRSDFWSWIRQFPGKGLEWIGYIYYSGSTNYNPSLESRVTISVDTSKNEFSLKLNYVTAADTAIYYCARETRWNWLDSWGQGTLVTVSS
VL: DIVMTQSPDSLAVSLGERASINCKSSQTISYISNNKNYLAWYQQKPGQPPRLLIYWASTRESGVPDRFSGGGFGTDFTLTISSLQAEDVAVYYCQQYFNTPWTFGQGTKVEIK
B6: CC9.3 IgG (antibody, V domains shown)
VH: QVQLQESGPGLVKPSETLSLTCTVSGGSIRSDFWSWIRQFPGKGLEWIGYIYYSGSTNYNPSLESRVTISVDTSKNEFSLKLNYVTAADTAIYYCARETRWNWLDSWGQGTLVTVSS
VL: DIVMTQSPDSLAVSLGERASINCKSSQTISYISNNKNYLAWYQQKPGQPPRLLIYWASTRESGVPDRFSGGGFGTDFTLTISSLQAEDVAVYYCQQYFNTPWTFGQGTKVEIK
B7: Fab CC9.2 (Fab, V domains shown)
VH: EVQLVESGGGLVQPGRSLRLSCVAPGFTLGGYGMHWVRQAPGKGLEWVGLISYDGSVQKYGSSVKGRFTISKDNSKNTLYLEMNSLRADDTAVYFCVKGASLGDNWGQGTLVTVSS
VL: EIVMTQSPLSLPVTLGQPASISCRSSQSLVYSDGDTYMSWFHQRPGQSPRRLIYKVSNRDFGVPDRFSGSGSGTDFTLKISRVEAEDVGVYYCMQGTHWPYTFGPGTKVEIK
B8: CC9.2 (IgG) (antibody, V domains shown)
VH: EVQLVESGGGLVQPGRSLRLSCVAPGFTLGGYGMHWVRQAPGKGLEWVGLISYDGSVQKYGSSVKGRFTISKDNSKNTLYLEMNSLRADDTAVYFCVKGASLGDNWGQGTLVTVSS
VL: EIVMTQSPLSLPVTLGQPASISCRSSQSLVYSDGDTYMSWFHQRPGQSPRRLIYKVSNRDFGVPDRFSGSGSGTDFTLKISRVEAEDVGVYYCMQGTHWPYTFGPGTKVEIK
B9: Fab CC40.8 (Fab, V domains shown)
VH: EVQLLESGGGLVQPGGSLRLSCAASGFTFSSYVMTWARQAPGKGLEWVSAISGTGYTYYADSVKGRFTVSRDNSKNTLFLQMSSLRAEDTAVYYCAITMAPVVWGQGTTVTVSS
VL: SYELTQPPSVSVSPGQTARITCSGDALPKRYAYWYQQKSGQAPILVIYEDKKRPSGIPERLSGSKSGTVATLTISGAQVEDEADYYCYSTDSSGNHAVFGGGTQLTVL
B10: CC40.8 (IgG) (antibody, V domains shown)
VH: EVQLLESGGGLVQPGGSLRLSCAASGFTFSSYVMTWARQAPGKGLEWVSAISGTGYTYYADSVKGRFTVSRDNSKNTLFLQMSSLRAEDTAVYYCAITMAPVVWGQGTTVTVSS
VL: SYELTQPPSVSVSPGQTARITCSGDALPKRYAYWYQQKSGQAPILVIYEDKKRPSGIPERLSGSKSGTVATLTISGAQVEDEADYYCYSTDSSGNHAVFGGGTQLTVL
B11: Fab CC9.3 (Fab, V domains shown)
VH: QVQLQESGPGLVKPSETLSLTCTVSGGSIRSDFWSWIRQFPGKGLEWIGYIYYSGSTNYNPSLESRVTISVDTSKNEFSLKLNYVTAADTAIYYCARETRWNWLDSWGQGTLVTVSS
VL: DIVMTQSPDSLAVSLGERASINCKSSQTISYISNNKNYLAWYQQKPGQPPRLLIYWASTRESGVPDRFSGGGFGTDFTLTISSLQAEDVAVYYCQQYFNTPWTFGQGTKVEIK
B12: CC9.3 (IgG) (antibody, V domains shown)
VH: QVQLQESGPGLVKPSETLSLTCTVSGGSIRSDFWSWIRQFPGKGLEWIGYIYYSGSTNYNPSLESRVTISVDTSKNEFSLKLNYVTAADTAIYYCARETRWNWLDSWGQGTLVTVSS
VL: DIVMTQSPDSLAVSLGERASINCKSSQTISYISNNKNYLAWYQQKPGQPPRLLIYWASTRESGVPDRFSGGGFGTDFTLTISSLQAEDVAVYYCQQYFNTPWTFGQGTKVEIK

Molecular target: SARS-CoV-2 S (SARS-CoV-2, UniProt P0DTC2 1-1208)
Assay: BLI

**Q.** For B1, which Kd is on record?
**A.** 16 nM

**Q.** B2 was tested. Which Kd did it give?
**A.** 1680 nM

**Q.** Which Kd does the source give for B3 here?
**A.** 1 nM

**Q.** B4 was tested. Which Kd did it give?
**A.** 5 nM

**Q.** Which Kd does the source give for B5 here?
**A.** 112 nM

**Q.** For B6, which Kd is on record?
**A.** 2 nM

Molecular target: T1, HCoV-HKU1 recombinant soluble S …
Assay: BLI

**Q.** B7 was tested. Which Kd did it give?
**A.** < 1 nM

**Q.** With B8 as the binder, how does the Kd read?
**A.** < 1 nM

**Q.** For B9, which Kd is on record?
**A.** < 1 nM

**Q.** Which Kd does the source give for B10 here?
**A.** < 1 nM

**Q.** For B11, which Kd is on record?
**A.** < 1 nM

**Q.** With B12 as the binder, how does the Kd read?
**A.** < 1 nM
